In the nanobody polyreactivity screen of Harvey et al. (2022):

assay: yeast display, Sf9 membrane polyspecificity reagent, FACS + sequencing; frameworks hold sequencing errors
Summary of the method: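 Sorting gates, low and high (top ~1%), were placed on anti-HA fluorescence to track expression and on streptavidin fluorescence to track reagent binding. A clone's polyreactivity label is taken from the gate it came out of. The reagent was 10% biotinylated, detergent-solubilized Sf9 membrane, applied for 1 hour at 4 °C to galactose-induced yeast display cells.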

Sequence | polyreactivity (PSR sort gate)
QVQLVESGGGLVQAGGSLRLSCAASGSTFSWYAMGWYRPAPGKEMELVAAISSGGSTNYADSVKGRFTISRDNAKNTVYLQMNSLKPEDTAVFYCAAVWSRFLISYSTGWWFEYWGQGTQVTVSS | low polyreactivity
QVQLVESGGGLVQAGGSLRLSCAASGSTFSWYAMGWYRQAPGKERELVAAITSGGSTQYADSVKGRFTISRDNAKNTVYLQMNSLKPEDTAVYYCATRRYKWGVRYDYWGQGTQVTVSS | high polyreactivity
QVQLVESGGGLVQAGGSLRLSCAASGSTFSYNAKGWYRQAPGKERELANYADSVKGRFTISRDKAKNTVYLQMNSLKPEDTAVYYCAAVGFSYYVIRFDYWGQGTQVTVSS | low polyreactivity
QVQLVESGGGLVQAGGSLRLSCAASGSTFSYNAMGCYRQAPGKESELVAAISRGDVSTYYADSVKGRFTISRDNAKNTVYLQMNSLKPEDTAVYYCAAYWYGSQYKWRYDYWGQGTQVTVSS | low polyreactivity
QVQLVESGGGLVQAGGSLRLSCAASGSTFSYNAMGWYRQAPGKEREFVAAITTSGVRTYYADSVKGRFTISRDNAKNTVYLQMNSLKPEDTAVYYCAARANYIFYGMDYWGQGTQVSVSS | high polyreactivity
QVQLVESGGGLVQAGGSLRLSCAASGSTFSYNAMGWYRQAPGKERELVAAINLRGGNTYYADSVKGRFTISRDNAKNTVYLQMNSLKPEDTAVYYCARTRRHSQNFDYWGQGTQVIVSS | high polyreactivity
QVQLVESGGGLVQAGGSLRLSCAASGSTFSYNAMGWYRQAPGKERELVAAISNGGSTNYADSVKGRFTISRDNAKNTVSLQMNSLKPEDTAVYYCAAHTYSELSWLVVYPYDYWGQGTQVTVSS | low polyreactivity
QVQLVESGGGLVQAGGSLRLSCAASGSTFSYNAMGWYRQAPGKERELVAAITSTGRTYYADSVKGRFTISRDNAKNTVYLQMNSLKPEDTAVYYCNKRARSEQYSYKYGYYYWGQGTQVTVSS | high polyreactivity
QVQLVESGGGLVQAGGSLRLSCAASGSTFSYNARGWYRQAPGKERELVAAITSGSSTNYADSVKGRFTISRDNAKNTVYLQMNSLKPEDTAVYYCAADGYQDKYYWLETWVGYWGQGTQVTVSS | low polyreactivity
QVQLVESGGGLVQAGGSLRLSCAASGSTFSYNDMGWYRQAPGKESELVADINVSVGRTYYADSVKGRFTISRDNAKNTVYLQMNSLTPEDTAVYYCNATLYTITSYVYAYDYWGQGTQVTVSS | low polyreactivity
QVQLVESGGGLVQAGGSLRLSCAASGSTFSYYAMGWYRQAPGKEREFVAAISRSGGRTYYADSVKGRFKISRDNAKNTVYLQLNSLKPEDTAVYYCATVYYYDFSRTHPWPGDYWGQGTQVTVSS | high polyreactivity
QVQLVESGGGLVQAGGSLRLSCAASGSTFSYYAMGWYRQAPGKERELVAAISRTAVSTYYADSVKGRFTISRDNAKNTVYLQMNSLKPEDTAVYYCAASHFHGYSLGYDYWGQGTQVTVSS | high polyreactivity
QVQLVESGGGLVQAGGSLRLSCAASGSTFSYYAMGWYRQAPGKERELVAAISSRGGSTYYADSVKGRFTISRDNAKNTVYLQMNSLKPEDTAVYYCNADHQFRSSVSGDHDYWGQGTQVTVSS | high polyreactivity
QVQLVESGGGLVQAGGSLRLSCAASGSTFSYYAMGWYRQAPGKERELVAAISSSGGSTYYADSVKGRFTISRDNAKNTVYLQMNSLKPEDTAVYYCNADSWRRRGRSRYDHWGQGTQVTVSS | low polyreactivity
QVQLVESGGGLVQAGGSLRLSCAASGSTFSYYAMGWYRQAPGKERELVAAISWSGGSKYYADSVKGRFTISRDNAKNTVYLQMNSLKPEDTAVYYCAVYYSYWFDYWGQGTQVTVSS | high polyreactivity
QVQLVESGGGLVQAGGSLRLSCAASGSTFSYYAMGWYRQAPGKERELVAAITSGGRTKYADSVKGRFTISRDNAKNTVYLQMNSLKPEDTAVYYCAKRIEKFSGSLAGRWYDYWGQGTQVTVSS | high polyreactivity

Sequence | polyreactivity (PSR sort gate)
QVQLVESGGGLVQAGGSLRLSCAASGSTFSYYGMGSYRTAPGKERELVDAIDYSGDSTYDADSVKGRFTISRDNAKNTVYLQMNSLKPEDTAVYYCAADDYPWNRYAYWGQGTQVPVSS | low polyreactivity
QVQLVESGGGLVQAGGSLRLSCAASGSTFSYYTMGWYRQAPGKERELVAAITRRGDSTYADSVKGRFTISRDNAKTTVYLQMNSLKPEDTAVYYCAADASVGVSGMDYWGQGSQVTVSS | low polyreactivity
QVQLVESGGGLVQAGGSLRLSCAASGSTFTANAMGWYRQAPGKERELVAAISRSGGSTYYADSVKGRFTISRDNAKNTVYLQMNSLKPEDTAVYYCAADEYYQVSAYDYWGQGTQVTVSS | low polyreactivity
QVQLVESGGGLVQAGGSLRLSCAASGSTFTGNAMGWYRQAPGKERELVAAISRSGGSTFYADSVKGRFTISRDNAKNTVYLQMNSLKPEDTAVYYCATRYVVDMDYWGQGTQVTVSS | high polyreactivity
QVQLVESGGGLVQAGGSLRLSCAASGSTFTGNAMGWYRQAPGKERELVAAISRSGGSTFYADSVKGRFTISRDNAKYTVYLQMNSLKAEDTAVYYCATRYVVDMDYWGQGTQVTVSW | high polyreactivity
QVQLVESGGGLVQAGGSLRLSCAASGSTFTGNAMGWYRQAPGKERELVADISSGASTNYADSVKGRFTISRDNAKNTVYLQMNSLKPEDTAVFYCAADSWDYDSRMDYWGQGTQVTVSS | low polyreactivity
QVQLVESGGGLVQAGGSLRLSCAASGSTFTGNVMGWYRQAPGKERELVAAIDSGATTNYADSVKGRFTISRDNAKNTVYLQINSLKPEDTAVYYCATDGLDFWFIYDYWGQGTQVTVSS | low polyreactivity
QVQLVESGGGLVQAGGSLRLSCAASGSTFTGYAMGWYRQAPGKEREFVANITKRGGRTYYADSVKGRFTISRDNAKNTVYLQMNSLKPEDTAGYYCARDQGKLVVPYEYWGQATQVTVSS | high polyreactivity
QVQLVESGGGLVQAGGSLRLSCAASGSTFTGYAMGWYRQAPGKERELVAAIDVSGATTYYADSVKGRFTISRDNAKNTVYLQMNSLKPEDTAVYYCATYATNSVAAYDYWGQGTQVTVSS | low polyreactivity
QVQLVESGGGLVQAGGSLRLSCAASGSTFTGYAMGWYRQAPGKERELVAAISISGGRTFYADSVKGRFTISRDNAKNTVYLQMNSLKPEDTAVYFCAAYLRGSKYSFDYWVQGTQVTVSS | high polyreactivity
QVQLVESGGGLVQAGGSLRLSCAASGSTFTGYAMGWYRQAPGNEREFVAAISRRGGSTYYADSVKGRFTISRDNAKNTVYLQMNSLKPEDTAVYYCAARGVGGTVPTRYDYWGQGTQVTVSS | high polyreactivity
QVQLVESGGGLVQAGGSLRLSCAASGSTFTINVMGWYRQAPGKERELVAAINGGGRTNYADSVKGRFTISRDNAKNTVYLQMNSLKPEDTAVYYCNARYGNESQGWEDYWGQGTKVTVSS | low polyreactivity
QVQLVESGGGLVQAGGSLRLSCAASGSTFTIYAIGWSRQAPGKERELVAGITRVGSTNYADSVKGRFTISRDNAKNTVYLQMNSLKPEDTAVYYCARRDLFQAGYEYWGQGTQVTVSS | low polyreactivity
QVQLVESGGGLVQAGGSLRLSCAASGSTFTLNAMVWYRQAPGKERELVADISWSSGRTYYADSVKGRFTISRDNAKNTVYLQMNSLKPEVSAVYYCATYDFWKVKFYAYYPEFDYWGQGTQVTVSS | low polyreactivity
QVQLVESGGGLVQAGGSLRLSCAASGSTFTLYALGWYRQAPGKERELVASITWSGSPYADSVKGRFTISRDNAKNTVYLQMNSLIPEDTAVYYCNTDPRSVVGWYDYWGQGTQVTVSS | low polyreactivity
QVQLVESGGGLVQAGGSLRLSCAASGSTFTLYAMGWYRQAPGKERELVATITGSGGSTNYADSVKGRFTISRDNAKNTVYLQMNSLKPEDTAVYYCAAYNPFYYKFDYWGQGTQVTVSS | high polyreactivity
